Results as given in paper PMC10388305, “Synthesis and Evaluation of a Monomethyl Auristatin E—Integrin αvβ6 Binding Peptide–Drug Conjugate for Tumor Targeted Drug Delivery” (Journal of Medicinal Chemistry, 2023).
Where two headings read alike, the source gives them in different places.

What was measured:
[1] = Serum stability in mouse serum; type: in vitro ADME; details: 37 °C, ethanol precipitation, radio RP-HPLC
Description: The serum stability of [^64Cu]PDC-1 was measured in both human and mouse serum at 37 °C at 1, 4, and 24 h.
Mouse serum or human serum (0.5 mL) was combined with an aliquot of [^64Cu]PDC-1 (≤25 μL, 3.9–4.7 MBq) and incubated at 37 °C. At each time point (1, 4, and 24 h), an aliquot (50–200 μL) was taken, proteins precipitated with absolute ethanol and removed by centrifugation at 1500g for 4 min. The ethanol solution was diluted with water (1 mL) and analyzed by RP-HPLC.

[2] = test system: cells expressing the integrin αvβ6; experiment: Internalization assay; type: cell-based; details: all cells expressing the integrin αvβ6; acidic wash pH 2.5; γ-counter
Text: Binding to cells with minimal to no expression of integrin αvβ6 was low at 4.4 ± 0.1% to DX3puro cells and 7.9 ± 0.4% to pancreatic MIA PaCa-2 cells. Binding of [^64Cu]PDC-1 to DX3puroβ6 (+) and BxPC-3 (+) was reduced by adding increasing amounts of DOTA-PDC-1, illustrating that the αvβ6-selective uptake could be blocked (Figure S3). Internalization of [^64Cu]-PDC-1 into cells was high with >50% of the bound radioactivity internalized for all cells expressing the integrin αvβ6. In comparison, cell binding of [^64Cu]2 to DX3puroβ6 (+) cells was 58.8 ± 2.3, and 3.3 ± 0.4% to the DX3puro (−) cells.
Cell binding and internalization assay. Binding and internalization were determined as previously described. […] The fraction of bound radioactivity was determined with a γ-counter (by measuring cell pellet and combined supernatants). To determine the fraction of internalized radioactivity, the cells were re-pelleted, and re-suspended in acidic wash buffer (0.2 M sodium acetate, 0.5 M sodium chloride, pH = 2.5, 300 μL, 4 °C, 5 min) to release surface bound activity, followed by a wash with PBS (300 μL). The internalized fraction was determined with a γ-counter (cell pellet vs. radioactivity released into supernatant). A Wizard 1470 or Wizard 2 2470 automatic γ-counter (Perkin-Elmer, Waltham, MA) was used to measure radioactivity samples. […]

[3] = Biodistribution, both tumor models; type: in vivo, mice; details: female, athymic nude, mouse, iv, total radioactivity; for tissue uptake: all time points
Description: (§1) Aliquots of the formulated [^64Cu]PDC-1 in isotonic 0.9% saline (4.81–5.74 MBq, 1.7–2.1 μg, 0.26–0.31 nmol, 100 μL, pH 7.2) were injected i.v. as described above. Following the conscious uptake period, the mice were anesthetized (5% isoflurane), euthanized, and dissected (n ≥ 3/model/time point [4, 24, and 48 h]; the 48 h time point also included the imaging animals sacrificed after the PET scans). Tissues were collected, washed, weighed, and radioactivity measured in a γ-counter. Calibrated, decay-corrected radioactivity was expressed as the percentage of injected dose per gram of tissue (% ID/g). Data are reported as mean ± SD. […] For in vivo blocking studies, DOTA-2 (50 mg/kg, 205 nmol, 1.4 mg in 100 μL 0.9% saline) was injected i.v. into two animals/tumor model 10 min prior to [^64Cu]PDC-1. The animals were sacrificed after 4 h, tissues collected, washed, weighed, and radioactivity measured in a γ-counter.

[4] = test system: DX3puroβ6/DX3puro and BxPC-3 xenograft tumor models; experiment: Biodistribution, both tumor models; type: in vivo, mice; details: DOTA-2 (205 nmol) 10 min prior; 4 h p.i.; both models
Description: as §1

## CC[C@H](C)[C@@H]([C@@H](CC(=O)N1CCC[C@H]1[C@H](OC)[C@@H](C)C(=O)N[C@H](C)[C@@H](O)c1ccccc1)OC)N(C)C(=O)[C@@H](NC(=O)[C@H](C(C)C)N(C)C(=O)OCc1ccc(NC(=O)[C@H](CCCNC(N)=O)NC(=O)[C@@H](NC(=O)CCOCCOCCNC(=O)CCN2C(=O)CC(SC[C@H](NC(=O)CN3CCN(CC(=O)O)CCN(CC(=O)O)CCN(CC(=O)O)CC3)C(=O)NCCOCCOCCOCCOCCOCCOCCOCCOCCOCCOCCOCCOCCOCCOCCOCCOCCOCCOCCOCCOCCOCCOCCOCCOCCOCCOCCOCCOCCC(=O)N[C@@H](CC(N)=O)C(=O)N[C@@H](C)C(=O)N[C@H](C(=O)N3CCC[C@H]3C(=O)N[C@@H](CC(N)=O)C(=O)N[C@@H](CC(C)C)C(=O)N[C@@H](CCCNC(=N)N)C(=O)NCC(=O)N[C@@H](CC(=O)O)C(=O)N[C@@H](CC(C)C)C(=O)N[C@@H](CCC(N)=O)C(=O)N[C@H](C(=O)N[C@@H](CC(C)C)C(=O)N[C@@H](C)C(=O)N[C@@H](CCC(N)=O)C(=O)N[C@@H](CCCNC(=N)N)C(=O)N[C@H](C(=O)N[C@@H](C)C(=O)N[C@@H](CCCNC(=N)N)C(=O)N[C@H](C(=O)NCCOCCOCCOCCOCCOCCOCCOCCOCCOCCOCCOCCOCCOCCOCCOCCOCCOCCOCCOCCOCCOCCOCCOCCOCCOCCOCCOCCOCCC(N)=O)[C@@H](C)O)C(C)C)C(C)C)C(C)C)C2=O)C(C)C)cc1)C(C)C (stereo partly drawn) [[^64Cu]PDC-1, metal not drawn]
[1]; 1 h
  remaining at 1 h: 89%
[1]; 4 h
  remaining at 4 h: 49%
[1]; 24 h
  remaining at 24 h: 3%
[2]
  Internalization, fraction of the bound radioactivity internalized: > 50%
[3]; faeces, 4 h, read-out: Fecal matter
  excreta dose per gram or mL at 4 h: 12 %ID/g
[3]; faeces, 48 h, read-out: Fecal matter
  excreta dose per gram or mL at 48 h: 1.5 %ID/g
[3]; kidney, 4 h, both models, read-out: Kidney uptake
  tissue uptake at 4 h: 50 to 64 %ID/g
[3]; kidney, 48 h, both models, read-out: Kidney uptake
  tissue uptake at 48 h: ≤ 25 %ID/g
[3]; large intestines, 4 h, read-out: Large intestines uptake
  tissue uptake at 4 h: 6 %ID/g
[3]; large intestines, 48 h, read-out: Large intestines uptake
  tissue uptake at 48 h: 3 %ID/g
[3]; muscle, read-out: Muscle uptake
  tissue uptake: ≤ 0.9 %ID/g
[3]; pancreas, read-out: Pancreas uptake
  tissue uptake: ≤ 0.5 %ID/g
[3]; small intestines, 4 h, read-out: Small intestines uptake
  tissue uptake at 4 h: 4 to 5 %ID/g
[3]; stomach, 4 h, read-out: Stomach uptake
  tissue uptake at 4 h: 9 %ID/g
[4]
  Reduction of uptake in the αvβ6 (+) tumors by blocking: 87–91%
